Here are results for one molecule from PMC8540335.

In data set [1] the target is NCp7 (1 Zn2+ per protein, as purified) (HIV-1, UniProt P04591 378-432). Nature of the data set: SPR; 1 Zn2+ per protein; 50 RU RNA immobilized; SPR (Biacore X100, SA chip): 10 mM HEPES pH 7.4, 150 mM NaCl, 0.005% Tween-20, 25 C. The following applies: protein: recombinant; tags: 6xHis (pET28); label: 3'-biotin; hairpin. For orientation: Surface plasmon resonance follows binding to a sensor surface in real time, without labels.

The target of a further data set is 2NCp7 (NCp7 with 2 Zn2+) (HIV-1, UniProt P04591 378-432). Nature of the data set: SPR; 2 Zn2+ per protein; 50 RU RNA immobilized; SPR (Biacore X100, SA chip): 10 mM HEPES pH 7.4, 150 mM NaCl, 0.005% Tween-20, 25 C. The following applies: protein: recombinant; tags: 6xHis (pET28); label: 3'-biotin; hairpin.

The Kd is the constant that tells how readily two partners part at equilibrium. Take GGACUAGCGGAGGCUAGUCC (structured_RNA) [SL3-RNA]: the Kd in data set [1] stood at 21.4 nM; with 2NCp7 (NCp7 with 2 Zn2+), 3.15 nM.
